± gives the standard deviation of the averaged measurements.
Tested on: ATP
Test: switch fluorescence ratio, 500 uM ATP over buffer (Cy3 cluster intensity, sum of 5 cycles each) (fold (ratio)); higher = stronger signal-on switching upon ATP binding; sequences stand for … in TCGTCGGCAGCGTCAGATGTGTATAAGAGACAGTTTTTTTTTTTTTTTTTTTTTTTTT…TC
Settings: aptamer strand: ATP DNA aptamer (quencher-CACCTGGGGGAGTATTGCGGAGGAAGG + anchor), 100 nM annealed; ATP concentration: 500 uM
How it was run: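 The fluorescence ratio divides summed target-cycle Cy3 intensity by summed buffer-cycle Cy3 intensity for each cluster and is averaged per switch-domain sequence. Cy3-labelled switching-strand clusters on a modified Illumina MiSeq flow-cell were annealed to 100 nM quencher-labelled ATP aptamer, then imaged in selection buffer and again after 15 min with 500 uM ATP at 22 °C. Five such cycles were run, with NaOH stripping and re-annealing between them, and clusters outside 100-1000 RFU were excluded.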
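Further: ATP exposure 15 min at 22 °C before imaging.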

Sequence	switch fluorescence ratio
TTTAGGTTGA	0.9957 ± 0.0012
CGTTTTTTAG	0.99 ± 0.022
TTTTGTTATG	0.9903 ± 0.0085
AGGGGTTTGA	1.01 ± 0.047
GGTGGGTGCA	0.985 ± 0.036
ACAGGACGTT	1.11 ± 0.028
GGTTTGGTTA	1 ± 0.027
CCGTTGGCCT	1.042 ± 0.0065
CAACATGGAG	0.9972 ± 0.0089
GCCGTGCGGG	0.978 ± 0.03
AGGAGTTTGG	0.981 ± 0.015
AGTTTATTGG	0.999 ± 0.0086
TGTAGGTTCT	1.06 ± 0.051
TAAGGGTTTT	1 ± 0.036
TAATTGAGGC	1.04 ± 0.017
TTGATAAGTT	0.9751 ± 0.0069
ATATTTGGGC	0.975 ± 0.034
TATGCCTTCG	1.09 ± 0.05
CGCTAGGGTG	1.115 ± 0.0032
AAATTCACTT	0.997 ± 0.021
TATTTGGAGG	0.992 ± 0.0044
TATCTTTCTT	1.06 ± 0.019
TCAACGCAGG	1.19 ± 0.065

Sequence	switch fluorescence ratio
GATGGGTCGT	1 ± 0.033
CGCTGAATTT	0.975 ± 0.03
ATGGAGGCTT	0.975 ± 0.018
CCGGCGTGGC	1.36 ± 0.082
CGCGGACACG	1.01 ± 0.048
AGAGAAGAT	0.988 ± 0.026
TCATCGGTTC	1 ± 0.052
GCTGACGGGA	1.1 ± 0.015
ACTTGCTATA	1.06 ± 0.029
TTAAAGTAGT	1.19 ± 0.32
CGTGATCCCC	1.17 ± 0.057
GCAGGCAACT	0.995 ± 0.018
GCAGTGGTAC	2.41 ± 0.086
ATGAATTTGC	0.979 ± 0.044
AATGCGTGTG	1.12 ± 0.15
TACAGGTTTT	0.972 ± 0.073
GATTTGAGCG	0.9852 ± 0.0046
ACTGAGTCAT	1.01 ± 0.034
TTTTAATTGT	1.08 ± 0.083
AGAAAGTTAA	0.9856 ± 0.0047
AGGGTGACGG	1.02 ± 0.031
CGTGAAGGGA	1.01 ± 0.026
ATGGGGTGTA	1 ± 0.03

Sequence	switch fluorescence ratio
GGGGATGCGC	1.02 ± 0.011
CCATAAGGGA	1.028 ± 0.0055
TTATATTTTT	1.02 ± 0.023
ATTCGTGCGC	1.071 ± 0.0046
CTAGGGTTGT	1.02 ± 0.045
TCATATTGGA	0.979 ± 0.015
ATAGTTTGAC	1.008 ± 0.0015
AAGGTACCGG	1.01 ± 0.03
ATTTACGGGT	1.015 ± 0.0082
TTTTTGACTG	0.994 ± 0.075
TTGATCTCTT	1.01 ± 0.026
AAGTGGGGCT	1.005 ± 0.0094
ATCAAAATAA	1.06 ± 0.059
ATCAGTGGGG	0.991 ± 0.042
CGGGTATTGG	0.97968 ± 0.00074
TAAGTTATGG	0.997 ± 0.02
AACCAGAAGG	1.01 ± 0.035
CCAGGGGGAC	1.11 ± 0.018
TATGGAAGCA	0.994 ± 0.014
TGGAAAAACT	1.08 ± 0.029
GAAAAGTTTT	0.969 ± 0.018
GGGTATCAGG	0.965 ± 0.016
CCCAGTTTTT	1.006 ± 0.0054

Sequence	switch fluorescence ratio
GGGGTGCCAA	0.975 ± 0.067
CTAATACTTG	0.9791 ± 0.0024
AGGTGAATGG	1.02 ± 0.03
ATCCGAGGGG	1.03 ± 0.05
ATTTTTCTTT	0.992 ± 0.012
TTCGATAGCA	1.06 ± 0.058
AGAGGATGTG	1.01 ± 0.033
GGGATATTTG	0.999 ± 0.036
TGAGAGTCAG	0.986 ± 0.017
AATGCTTGTC	0.952 ± 0.048
CGCTAATTGG	1.09 ± 0.014
CAGAGGGGTA	1.01 ± 0.03
GAATGGGTTG	1.01 ± 0.028
ATTTGGGCTT	1.05 ± 0.12
AGATAATTCT	1.02 ± 0.013
CAACTGGCGG	0.99 ± 0.017
ATGAGGGGGG	0.986 ± 0.031
TCCAGGGGAT	1.07 ± 0.12
TGTGATTGTG	0.967 ± 0.015
AAATTGAAAT	1.01 ± 0.031
TAGCGATTGT	1.02 ± 0.062
AGGTAGGTGG	1.01 ± 0.019
ATTAACTTTG	1.01 ± 0.05

Sequence	switch fluorescence ratio
TGTTTTTAAC	0.983 ± 0.015
TGGATATAGG	1.03 ± 0.038
CGGTTTGGGT	0.9931 ± 0.0043
GTATCAACGG	1.034 ± 0.0028
GGTTTGAAAT	1.04 ± 0.051
GCGAGGGGCT	0.9717 ± 0.0031
AGCTCAATTA	1.02 ± 0.03
CAAATAACGG	1 ± 0.023
AGTCGAAATG	0.989 ± 0.028
CCTGGGGATC	1.15 ± 0.098
TGTGGCTATG	1.02 ± 0.014
ATGAGTCATT	0.987 ± 0.026
CTGAAAAATT	1.01 ± 0.078
GCGGTAGCAG	0.979 ± 0.024
TTAAAGTTGC	1.02 ± 0.038
GTTAGATTGT	0.9731 ± 0.0039
ATCGACATAG	0.9985 ± 0.006
CAGGAAAATG	0.994 ± 0.041
TTGTTTTCCG	1.02 ± 0.014
GACGTTATTG	1.03 ± 0.013
CAGGGAATTG	0.989 ± 0.075
TGAGCGTTGG	0.9987 ± 0.0062
GCTCTGAGCT	1.05 ± 0.086

Sequence	switch fluorescence ratio
TTTGACGACT	1.01 ± 0.025
TAGCTCCGTA	1.09 ± 0.036
TTTTCGGTAG	0.989 ± 0.027
GAGGGCGGGG	1.05 ± 0.077
TAAATGACTA	0.987 ± 0.018
TTCCAATAAG	1.01 ± 0.02
TATCGTAAAT	1 ± 0.029
TATATTTTAG	1.03 ± 0.021
GAACATCGGC	1.036 ± 0.0022
CCGGGCGTGG	1.09 ± 0.025
CTTTAGAATC	0.941 ± 0.021
ATGGTATCAG	1.007 ± 0.0084
TGGATGAGCT	0.9968 ± 0.0088
GATGGGGTCC	0.949 ± 0.015
TCCACATATC	1.5 ± 0.0073
CGAACTGGGT	1.03 ± 0.028
TTCCCATGGG	1.02 ± 0.027
GATAATCTGT	0.984 ± 0.048
ATTTATTCCT	1.05 ± 0.015
GTGCGGGCGC	0.944 ± 0.04
AAATGGGTGA	1.05 ± 0.017
GGTTATAGAC	0.994 ± 0.012
GGTCTTGTGG	0.993 ± 0.032

Sequence	switch fluorescence ratio
ATTAAGTTTC	0.9675 ± 0.0012
TTAGTTTTTT	1.01 ± 0.019
GGTGCATGGG	1.01 ± 0.034
ATGTATTTTG	0.967 ± 0.049
TTTTACGCTG	1 ± 0.036
GGGGGCAGCT	1 ± 0.027
TTAGGCGCCG	0.994 ± 0.054
CTTGTTGTTT	1.03 ± 0.15
TTGGCGGGTT	1.008 ± 0.0062
AAGGGAAGCG	1.01 ± 0.039
ACGAGTTCGC	1.04 ± 0.025
GCGTTAAGGG	0.964 ± 0.053
TCTGCACATT	1.07 ± 0.025
TGTTAGTATT	0.999 ± 0.019
GGTCTGGCTT	0.988 ± 0.052
TGCGGAAGTT	1.01 ± 0.023
AAGCGGACGG	0.9536 ± 0.0046
CGTTCGGCTG	1.04 ± 0.039
AAAGCAGGGA	1.04 ± 0.043

— the supplement of paper PMC10126150
